From patent publication US20120042415A1

Biological target: wild type pokeweed antiviral protein (PAP) (pokeweed) (UniProt P10297)
Test: cell-based or functional assay

Sequence of UniProt P10297 (P10297 23-285 limits assumed): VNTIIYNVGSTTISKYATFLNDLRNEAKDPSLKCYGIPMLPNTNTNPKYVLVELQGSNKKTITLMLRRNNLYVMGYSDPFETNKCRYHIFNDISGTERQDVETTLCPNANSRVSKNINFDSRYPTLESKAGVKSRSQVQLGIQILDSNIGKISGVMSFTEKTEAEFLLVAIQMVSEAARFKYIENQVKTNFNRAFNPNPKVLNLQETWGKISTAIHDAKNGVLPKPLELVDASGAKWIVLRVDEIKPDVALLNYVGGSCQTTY

yeast wild type ribosomal protein L3 (full length) (from UniProt P14126 1-387)
transformation frequency of tobacco with L3+PAP (NT243): 24%
